Experimental data reported in US20200223906A1 (Adimab, published 2020).

B1: ADI-18982 (antibody, V domains shown)
VH: QVQLVQSGAEVKKPGASVKVSCKASGYIFTSYGVSWVRQAPGQGLKWMGWISGYNGNTNYDQKLQGRVTMTTDTSTSTAYMELRSLTSDDTAVYYCARDSFSETGTGFPDFWGQGTLVTVSS
VL: DIQMTQSPLSLPVTLGQPASISCRSSQSLEYSDGNTYLNWFQQRPGQSPRRLIYKVSNRDSGVPDRFSGSGSGTDFTLKISRVEAEDVGVYYCMQATHRPRTFGQGTKLEIK
notes: full-length IgG; also called Antibody Number 330
B2: ADI-18990 (antibody, V domains shown)
VH: QVQLQESGPGRVKPSQTLSLTCTVSGVSVTINDYYWTWLRQSPGKGLEWIGNIYNSGSTYQNPSLQSRVTMSVDTAKNHFSLKLTSVTAADTAVYYCARDLGTANNYYFGMDVWGLGTTVTVSS
VL: DIVLTQSPATLSLSPGERATLSCRASQSVSTYLAWYQQKPGQAPRLLIYNGSNRVTGTPARFSGSGSGTDFTLTISSVEPEDFAVYYCQQRSNWPPYTFGQGTKVEIK
notes: full-length IgG
B3: ADI-18992 (antibody, V domains shown)
VH: QVQLVQSGAEVKKPGASVKVSCKASGYIFTGYFIHWVRQAPGQGLEWMGVINPRGGSTSYAQKFQGRVAVSRDTSTTTVYMELNSLRSEDTAVYYCARAPSHDEWVAISRNNDVVGFDAWGQGTLVTVSS
VL: QSVLTQPPSVSGAPGQRVTISCTGGSSNIGADYDVHWYQQPPGTAPKLLIFANNNRPSGVPGRFSGSKSGTSASLAITGLQAEDEADYYCQSYDSSLSAWVFGGGTKLTVL
notes: full-length IgG; also called Antibody Number 340
B4: ADI-18998 (antibody, V domains shown)
VH: EVQLLESGPGLVKPSQTLSLTCTVSGGSINSIDYYWSWIRQPPGKGLEWIGYIYHSGSTHYRPSLKSRVTISLDKAKNEFSLSLTSVTAADTAVYFCASGPVGMATSNWFDPWGQGTLVTVSS
VL: QPVLTQPPSVSVTPGETARLPCEGDIVVTNSVHWYQQKPGQAPVLVVYYDSDRASGIPERFSGSNSGNTATLSISRVEAGDEADYYCQVWDSSTDHHVVFGGGTKLTVL
notes: full-length IgG; also called Antibody Number 346
B5: ADI-18999 (antibody, V domains shown)
VH: QVQLVQSGAEVKKPGSSVKVSCKASGGRFSSDAISWVRQAPGQGLEWMGGIIPIRGTPTYAQKFQGRVTIIADESTTTSYMEMSSLRSEDTAVYYCARPNYDILTGYNDAFDIWGQGTMVTVSS
VL: QSVLTQPRSVSGSPGQSVTISCTGTSSDVGGYNYVSWYQQHPGKVPRLMIYDVSKRPSGAPDRFSGSKSGNTASLTISGLQAEDEADYYCCSYAGGLYVFGTGTKLTVL
notes: full-length IgG
B6: ADI-19000 (antibody, V domains shown)
VH: EVQLVESGAEVKKPGASVKVSCKASGYTFTTYDINWVRQATGRGLEWMGWMTPDSGSTGYPQNFQGRVTMTRNTSISTAYMELSNLRSEDTAVYYCVQMDHCRSTSCSEGNWFDTWGQGTLVTVSS
VL: QPGLTQPPSVSAAPRQRVTISCSGSSSNIGTNAVNWYQQLPGKAPKLLIYSDNLMPSGVSARFSGSKSGTSASLAISGLQSEDEADYYCAAWDDSLNVWVFGGGTKLTVL
notes: full-length IgG; also called Antibody Number 348
B7: ADI-19007 (antibody, V domains shown)
VH: QVQLVQSGGGLVQPGGSLRLSCAASGFTFSQSPMSWVRQAPGKGLEWVSGISTGGTNTYYADSVKGRFTISRDNSKNTLYLQMTSLRVGDTAVYYCAKESLDFGSGSYNWFDTWGQGTLVTVSS
VL: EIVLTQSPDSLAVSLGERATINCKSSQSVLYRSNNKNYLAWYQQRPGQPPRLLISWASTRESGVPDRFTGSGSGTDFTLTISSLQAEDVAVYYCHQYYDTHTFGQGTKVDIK
notes: full-length IgG

Experiments:
[1] = molecular target: T1, RSV F ectodomain stabilized in the postfusion conformation (F ΔFP), subtype B (respiratory syncytial virus subtype B, UniProt P13843 26-109; P13843 147-524); assay: BLI (Octet), IgG on AHQ sensor, 100 nM antigen
T1 construct: extracellular domain; Trimer; also called Postfusion subtype B

[2] = molecular target: T2, RSV F ectodomain stabilized in the postfusion conformation (F ΔFP), subtype A (respiratory syncytial virus subtype A, UniProt P03420 26-109; P03420 147-524); assay: BLI (Octet), IgG on AHQ sensor, 100 nM antigen
T2 construct: extracellular domain; Trimer; also called Postfusion subtype A

[3] = molecular target: T3, RSV F protein of subtype A (strain A2) on recombinant mKate-RSV (respiratory syncytial virus subtype A …, UniProt P03420 26-574); assay: cell-based or functional assay
[4] = molecular target: RSV F protein of subtype B (18537) on recombinant mKate-RSV (respiratory syncytial virus subtype B …, UniProt P13843 26-574); assay: cell-based or functional assay
[5] = molecular target: human metapneumovirus (HMPV) F protein on GFP-expressing hMPV recombinant virus (NL/1/00, A1 sublineage) (human metapneumovirus); assay: cell-based or functional assay
[6] = molecular target: T3, RSV F protein of subtype A (strain A2) …; assay: cell-based or functional assay; remark: listed apart in the source

Row | Binder | Kd [1] [nM] | Kd [2] [nM] | Neut IC50 subtype A [3] [mg/L] | Neut IC50 subtype B [4] [mg/L] | HMPV-A1 IC50 [5] [mg/L] | RSV-A2 IC50 [6] [mg/L]
1 | B1 | 0.747 | 0.765 | 0.018 | 0.053 | – | –
2 | B2 | 0.252 | 0.294 | 0.58 | 0.845 | – | –
3 | B3 | 0.907 | – | 2.55 | 5.69 | 6.1 | 2.5
4 | B4 | – | 12.4 | 0.055 | 0.458 | – | –
5 | B5 | 0.141 | 0.167 | 1.8 | 6.46 | – | –
6 | B6 | 0.128 | 0.175 | 0.037 | 0.129 | – | –
7 | B7 | 0.457 | 0.969 | 0.208 | 0.37 | – | –
